In patent US20150329644A1 (BRIGHAM AND WOMEN S HOSPITAL, published 2015):
Ends that are not written are not given here.

T1: Endogenous LSD2 (human cells) (human, UniProt Q8NB78 1-822, limits assumed)
T1 construct: also called KDM1b; AOF1
T1 sequence (looked up): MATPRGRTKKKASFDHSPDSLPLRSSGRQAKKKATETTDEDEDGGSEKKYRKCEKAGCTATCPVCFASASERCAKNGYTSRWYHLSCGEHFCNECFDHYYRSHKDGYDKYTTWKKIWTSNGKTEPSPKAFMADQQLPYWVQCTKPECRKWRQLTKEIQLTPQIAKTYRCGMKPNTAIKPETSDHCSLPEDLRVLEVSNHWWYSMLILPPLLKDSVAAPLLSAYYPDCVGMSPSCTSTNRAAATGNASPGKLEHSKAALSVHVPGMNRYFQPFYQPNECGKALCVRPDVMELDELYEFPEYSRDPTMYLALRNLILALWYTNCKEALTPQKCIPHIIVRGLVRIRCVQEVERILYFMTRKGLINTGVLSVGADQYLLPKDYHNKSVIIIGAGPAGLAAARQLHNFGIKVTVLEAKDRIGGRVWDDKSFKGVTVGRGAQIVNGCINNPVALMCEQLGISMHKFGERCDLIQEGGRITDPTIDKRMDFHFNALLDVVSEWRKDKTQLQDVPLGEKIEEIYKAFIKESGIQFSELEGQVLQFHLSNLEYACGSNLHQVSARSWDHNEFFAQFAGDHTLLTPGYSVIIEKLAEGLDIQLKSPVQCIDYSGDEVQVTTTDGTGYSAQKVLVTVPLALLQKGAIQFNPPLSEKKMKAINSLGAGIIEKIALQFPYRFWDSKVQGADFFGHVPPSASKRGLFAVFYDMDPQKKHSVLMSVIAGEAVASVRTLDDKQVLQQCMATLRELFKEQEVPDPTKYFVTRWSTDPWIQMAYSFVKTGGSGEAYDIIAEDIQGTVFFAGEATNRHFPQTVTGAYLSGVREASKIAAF

T2: Recombinant 6x his tagged full-length LSD2 (human, UniProt Q8NB78 1-822)
T2 construct: range 1-822; Expressed in and purified from Sf9 insect cells; also called His-LSD2; full-length His-LSD2
T2 sequence: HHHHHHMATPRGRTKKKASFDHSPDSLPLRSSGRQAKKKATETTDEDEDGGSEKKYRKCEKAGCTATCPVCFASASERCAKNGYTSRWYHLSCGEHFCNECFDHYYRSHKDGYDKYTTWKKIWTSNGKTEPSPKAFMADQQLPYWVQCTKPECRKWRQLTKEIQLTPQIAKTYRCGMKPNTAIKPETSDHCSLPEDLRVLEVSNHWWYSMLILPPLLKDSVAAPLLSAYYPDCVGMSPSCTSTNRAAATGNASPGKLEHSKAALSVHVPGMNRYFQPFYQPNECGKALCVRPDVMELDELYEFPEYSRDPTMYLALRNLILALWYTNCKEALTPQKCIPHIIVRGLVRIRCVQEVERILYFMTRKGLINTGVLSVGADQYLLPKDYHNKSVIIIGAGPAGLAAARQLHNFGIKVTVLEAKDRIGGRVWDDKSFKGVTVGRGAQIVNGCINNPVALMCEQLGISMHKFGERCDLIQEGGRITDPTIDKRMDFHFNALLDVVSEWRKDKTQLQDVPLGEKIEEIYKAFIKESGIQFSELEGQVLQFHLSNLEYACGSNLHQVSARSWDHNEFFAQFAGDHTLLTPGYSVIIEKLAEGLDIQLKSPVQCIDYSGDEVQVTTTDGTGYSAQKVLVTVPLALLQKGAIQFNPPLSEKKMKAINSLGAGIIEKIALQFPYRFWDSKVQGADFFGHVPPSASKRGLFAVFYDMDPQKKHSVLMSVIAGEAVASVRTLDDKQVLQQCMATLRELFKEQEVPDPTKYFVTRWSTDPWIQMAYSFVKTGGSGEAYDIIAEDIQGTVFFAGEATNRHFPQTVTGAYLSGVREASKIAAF

T3: Human LSD2 (residues 51-822) (human, UniProt Q8NB78 51-822)
T3 construct: range 51-822; Expressed in Sf9 cells with a His6 tag removed by 3C protease; used for ITC; also called KDM1b; AOF1
T3 sequence (looked up): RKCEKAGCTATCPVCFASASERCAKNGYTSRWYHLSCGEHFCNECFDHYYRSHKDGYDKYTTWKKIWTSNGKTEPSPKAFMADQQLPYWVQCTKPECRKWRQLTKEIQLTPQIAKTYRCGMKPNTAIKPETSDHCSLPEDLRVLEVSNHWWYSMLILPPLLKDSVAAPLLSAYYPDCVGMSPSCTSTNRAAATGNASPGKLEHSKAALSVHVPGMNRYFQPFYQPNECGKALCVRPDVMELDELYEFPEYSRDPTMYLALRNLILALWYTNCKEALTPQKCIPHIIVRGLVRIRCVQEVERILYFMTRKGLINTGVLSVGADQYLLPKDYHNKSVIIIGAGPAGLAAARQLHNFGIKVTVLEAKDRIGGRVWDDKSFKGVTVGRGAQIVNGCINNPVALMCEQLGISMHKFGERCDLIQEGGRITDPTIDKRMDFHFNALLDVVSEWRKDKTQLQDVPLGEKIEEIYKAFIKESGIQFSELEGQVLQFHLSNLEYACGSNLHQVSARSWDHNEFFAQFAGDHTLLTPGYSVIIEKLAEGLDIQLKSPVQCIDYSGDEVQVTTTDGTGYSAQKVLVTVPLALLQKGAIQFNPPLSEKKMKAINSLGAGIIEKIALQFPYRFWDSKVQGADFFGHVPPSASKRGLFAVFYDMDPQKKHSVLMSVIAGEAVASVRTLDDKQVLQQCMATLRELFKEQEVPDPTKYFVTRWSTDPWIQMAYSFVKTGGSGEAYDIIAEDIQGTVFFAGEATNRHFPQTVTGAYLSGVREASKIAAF

B1: FLAG-HA tagged NPAC (N-terminal FLAG-HA, stably expressed in HeLa, tandem affinity purified) (other)
chain: MAAVSLRLGDLVWGKLGRYPPWPGKIVNPPKDLKKPRGKKCFFVKFFGTEDHAWIKVEQLKPYHAHKEEMIKINKGKRFQQAVDAVEEFLRRAKGKDQTSSHNSSDDKNRRNSSEERSRPNSGDEKRKLSLSEGKVKKNMGEGKKRVSSGSSERGSKSPLKRAQEQSPRKRGRPPKDEKDLTIPESSTVKGMMAGPMAAFKWQPTASEPVKDADPHFHHFLLSQTEKPAVCYQAITKKLKICEEETGSTSIQAADSTAVNGSITPTDKKIGFLGLGLMGSGIVSNLLKMGHTVTVWNRTAEKCDLFIQEGARLGRTPAEVVSTCDITFACVSDPKAAKDLVLGPSGVLQGIRPGKCYVDMSTVDADTVTELAQVIVSRGGRFLEAPVSGNQQLSNDGMLVILAAGDRGLYEDCSSCFQAMGKTSFFLGEVGNAAKMMLIVNMVQGSFMATIAEGLTLAHVTGQSQQTLLDILNQGQLASIFLDQKCQNILQGNFKPDFYLKYIQKDLRLAIALGDAVNHPTPMAAAANEVYKRAKALDQSDNDMSAVYRAYIH
notes: Bait of the purified NPAC complex; also called FLAG:HA-NPAC; NPAC complex; not shown: N-terminal FLAG-HA tag from pOZ-N vector
B2: Endogenous NPAC (human cells) (other)
chain: MAAVSLRLGDLVWGKLGRYPPWPGKIVNPPKDLKKPRGKKCFFVKFFGTEDHAWIKVEQLKPYHAHKEEMIKINKGKRFQQAVDAVEEFLRRAKGKDQTSSHNSSDDKNRRNSSEERSRPNSGDEKRKLSLSEGKVKKNMGEGKKRVSSGSSERGSKSPLKRAQEQSPRKRGRPPKDEKDLTIPESSTVKGMMAGPMAAFKWQPTASEPVKDADPHFHHFLLSQTEKPAVCYQAITKKLKICEEETGSTSIQAADSTAVNGSITPTDKKIGFLGLGLMGSGIVSNLLKMGHTVTVWNRTAEKCDLFIQEGARLGRTPAEVVSTCDITFACVSDPKAAKDLVLGPSGVLQGIRPGKCYVDMSTVDADTVTELAQVIVSRGGRFLEAPVSGNQQLSNDGMLVILAAGDRGLYEDCSSCFQAMGKTSFFLGEVGNAAKMMLIVNMVQGSFMATIAEGLTLAHVTGQSQQTLLDILNQGQLASIFLDQKCQNILQGNFKPDFYLKYIQKDLRLAIALGDAVNHPTPMAAAANEVYKRAKALDQSDNDMSAVYRAYIH
notes: Endogenous protein of HeLa cells, detected by immunoblot in purified complexes; also called GLYR1; NP60
B3: GST-NP.d1 (NPAC residues 1-150, PWWP domain) (other)
chain: MAAVSLRLGDLVWGKLGRYPPWPGKIVNPPKDLKKPRGKKCFFVKFFGTEDHAWIKVEQLKPYHAHKEEMIKINKGKRFQQAVDAVEEFLRRAKGKDQTSSHNSSDDKNRRNSSEERSRPNSGDEKRKLSLSEGKVKKNMGEGKKRVSSG
notes: not shown: glutathione S-transferase (GST) tag from vector pGEX-4T-1
B4: GST-NP.d5 (NPAC residues 262-553, dehydrogenase domain) (other)
chain: SITPTDKKIGFLGLGLMGSGIVSNLLKMGHTVTVWNRTAEKCDLFIQEGARLGRTPAEVVSTCDITFACVSDPKAAKDLVLGPSGVLQGIRPGKCYVDMSTVDADTVTELAQVIVSRGGRFLEAPVSGNQQLSNDGMLVILAAGDRGLYEDCSSCFQAMGKTSFFLGEVGNAAKMMLIVNMVQGSFMATIAEGLTLAHVTGQSQQTLLDILNQGQLASIFLDQKCQNILQGNFKPDFYLKYIQKDLRLAIALGDAVNHPTPMAAAANEVYKRAKALDQSDNDMSAVYRAYIH
notes: as for B3
B5: GST-NP.d6 (NPAC with deletion of the linker region, residues 152-252) (other, not shown: a dimerising Fc or GST; small tags and cut ends)
chain: MAAVSLRLGDLVWGKLGRYPPWPGKIVNPPKDLKKPRGKKCFFVKFFGTEDHAWIKVEQLKPYHAHKEEMIKINKGKRFQQAVDAVEEFLRRAKGKDQTSSHNSSDDKNRRNSSEERSRPNSGDEKRKLSLSEGKVKKNMGEGKKRVSSGSAADSTAVNGSITPTDKKIGFLGLGLMGSGIVSNLLKMGHTVTVWNRTAEKCDLFIQEGARLGRTPAEVVSTCDITFACVSDPKAAKDLVLGPSGVLQGIRPGKCYVDMSTVDADTVTELAQVIVSRGGRFLEAPVSGNQQLSNDGMLVILAAGDRGLYEDCSSCFQAMGKTSFFLGEVGNAAKMMLIVNMVQGSFMATIAEGLTLAHVTGQSQQTLLDILNQGQLASIFLDQKCQNILQGNFKPDFYLKYIQKDLRLAIALGDAVNHPTPMAAAANEVYKRAKALDQSDNDMSAVYRAYIH
notes: The flanking ranges are derived from that
B6: GST-NP.d7 (NPAC residues 152-186, containing the AT hook motif) (other)
chain: SERGSKSPLKRAQEQSPRKRGRPPKDEKDLTIPES
modifications: also: GST tag fusion, tag and linker sequence not given here
notes: as for B3
B7: GST-NP.d9 (NP.d3, NPAC residues 152-252, with deletion of amino acids 214-222) (other, not shown: a dimerising Fc or GST; small tags and cut ends)
chain: SERGSKSPLKRAQEQSPRKRGRPPKDEKDLTIPESSTVKGMMAGPMAAFKWQPTASEPVKDASQTEKPAVCYQAITKKLKICEEETGSTSIQ
notes: as for B5
B8: NPAC.214-225.M6 (F217A) (peptide)
peptide: DPHAHHFLLSQT
notes: Synthetic dodecapeptide; also called NP.M6
B9: NPAC.214-225.M8 (D214A/H216A/F217A) (peptide)
peptide: APAAHHFLLSQT
notes: Synthetic dodecapeptide; also called D214A/H216A/F217A triple mutant peptide

Key:
[1] = target: T1, Endogenous LSD2 (human cells); assay: tandem affinity purification from HeLa, immunoblot with anti-LSD2
[2] = target: Endogenous LSD1 (HeLa cells) (human, UniProt O60341 1-852); assay: tandem affinity purification, immunoblot with anti-LSD1
[3] = target: FLAG-HA tagged LSD1 bait protein (stably expressed in HeLa, tandem affinity purified) (human, UniProt O60341 1-852); assay: tandem affinity purification, immunoblot with anti-NPAC
[4] = target: T2, Recombinant 6x his tagged full-length …; assay: GST pulldown of purified His-LSD2, SDS-PAGE, Coomassie
Experimental: DH, dehydrogenase domain; black box, AT-hook motif. FIG. 2A discloses “PWWP” as SEQ ID NO: 63. […] Molecular masses corresponding to mono- and di-methylated H3K4 peptides (residues 1-21) are denoted as me1 and me2, respectively.
(§1) After washed 4 times with same buffer at 4° C., glutathione agarose beads were boiled in 1× SDS sample loading buffer. Elute was resolved on a 15% SDS-PAGE gel and stained by coomassie blue.

[5] = target: T2, Recombinant 6x his tagged full-length …; assay: GST pulldown of His-LSD2, SDS-PAGE, Coomassie
Experimental: FIG. 5B discloses SEQ ID NO: 51. […] FIG. 5D discloses SEQ ID NOS 63 and 76, respectively, in order of appearance. […] See also FIG. 6G.
as §1

[6] = target: T3, Human LSD2 (residues 51-822); assay: ITC, 15 °C; 3 mM peptide injected into 0.2 mM LSD2 (residues 51-822)
Experimental: Isothermal Titration Calorimetry (ITC) binding study. […] All proteins and peptides were prepared in 10 mM HEPES, pH 8.0, and 0.1 M NaCl. The data were fitted by software Origin 7.0.

Row | Binder | binding result [4] | Δ H [6] [kcal/mol] | Δ S [6] [cal/mol/deg] | other results
1 | B1 |  |  |  | binding result [1]: binds; binding result [2]: no binding
2 | B2 |  |  |  | binding result [3]: no binding
3 | B3 | no binding |  |  | 
4 | B4 | no binding |  |  | 
5 | B5 | no binding |  |  | 
6 | B6 |  |  |  | binding result [5]: no binding
7 | B7 |  |  |  | binding result [5]: no binding
8 | DPHFHHFLLSQT (also called wild-type NPAC peptide) [NPAC.214-225.WT (wild-type NPAC dodecapeptide, residues 214-225)] |  | -8.48 | -1.82 | Binding ratio [6]: 1.06; Kd [6]: 920 nM
9 | B8 |  | -8.18 | -0.783 | Binding ratio [6]: 1.1; Kd [6]: 930 nM
10 | B9 |  | -8.29 | -1.3 | 
